Each block holds one molecule with its values, some of them ahead of it.
Key:
[1] = target: His6-tagged 4Q variant of the cytoplasmic fragment of the E. coli aspartate receptor Tar (His6-TarCF4Q) (E. coli) (UniProt P07017); test: cryo-EM structure; cryo-electron tomography and sub-tomogram averaging of arrays reconstituted in vitro; His6-TarCF held on a Ni2+-NTA lipid monolayer; 9:18:18 µM TarCF:CheA:CheW; 75 mM Tris-HCl pH 7.4, 100 mM KCl, 5 mM MgCl2; overnight
[2] = target: the molecule itself; test: as above

stoichiometry N [1]: 6
Molecule: His6-tagged 4Q variant of the cytoplasmic fragment of the E. coli aspartate receptor Tar (His6-TarCF4Q) (from UniProt P07017 357-553) (domain or fragment)

stoichiometry N (CheA per receptor trimer-of-dimers (TOD)) [1]: 1
B1: E. coli histidine kinase CheA, domains P3-P4-P5 (P1-P2 deleted) (domain or fragment, UniProt P07363 264-654, looked up)
chain: IRVAVEKVDQLINLVGELVITQSMLAQRSSELDPVNHGDLITSMGQLQRNARDLQESVMSIRMMPMEYVFSRYPRLVRDLAGKLGKQVELTLVGSSTELDKSLIERIIDPLTHLVRNSLDHGIELPEKRLAAGKNSVGNLILSAEHQGGNICIEVTDDGAGLNRERILAKAASQGLTVSENMSDDEVAMLIFAPGFSTAEQVTDVSGRGVGMDVVKRNIQKMGGHVEIQSKQGTGTTIRILLPLTLAILDGMSVRVADEVFILPLNAVMESLQPREADLHPLAGGERVLEVRGEYLPIVELWKVFNVAGAKTEATQGIVVILQSGGRRYALLVDQLIGQHQVVVKNLESNYRKVPGISAATILGDGSVALIVDVSALQAINREQRMANTAA
notes: Histidine kinase CheA, E. coli, domains P3, P4 and P5 (pQM12: based on pKJ9 with del P1-P2); the atomic model covers residues 264-646; The methods also name pKJ9 (full-length CheA); the results say that CheA.P3-P4-P5 stood in the monolayer arrays; also called CheA.P3-P4-P5; CheA.P3.P4.P5; source: E. coli RP3098, plasmid pQM12, purified (Affi-gel Blue, Superdex 200, Mono Q)
stoichiometry N [2]: 2

stoichiometry N (CheW per receptor trimer-of-dimers (TOD)) [1]: 2
B2: E. coli adaptor protein CheW (natural protein)
chain: MTGMTNVTKLASEPSGQEFLVFTLGDEEYGIDILKVQEIRGYDQVTRIANTPAFIKGVTNLRGVIVPIVDLRIKFSQVDVDYNDNTVVIVLNLGQRVVGIVVDGVSDVLSLTAEQIRPAPEFAVTLSTEYLTGLGALGDRMLILVNIEKLLNSEEMALLDSAASEVA

— publication PMC6954272, “Structure and dynamics of the E. coli chemotaxis core signaling complex by cryo-electron tomography and molecular simulations” (Communications Biology, 2020)
